Test results published in patent publication US20220064275A1 (SCHOLAR ROCK, published 2022).
Substitutions are numbered along the chain they refer to.

B1: Ab1 (antibody, V domains shown)
VH: EVQLLESGGGLVQPGGSLRLSCAASGFTFRNYAMSWVRQAPGKGLEWVSSISGSGGATYYADSVKGRFTISRDNSKNTLYLQMNSLRAEDTAVYYCARVSSGHWDFDYWGQGTLVTVSS
VL: DIQLTQSPSSLSASVGDRVTITCQASQDISNFLNWYQQKPGKAPKLLIYDASNLETGVPSRFSGSGSGTDFTFTISSLQPEDIATYYCQQVFNPPLTFGGGTKVEIK
B2: Ab5 (antibody, V domains shown)
VH: EVQLVESGGGLVQPGGSLRLSCAASGFTFSSFSMDWVRQAPGKGLEWVSYISPDASTIYYADSVKGRFTISRDNAKNSLYLQMNSLRAEDTAVYYCARGVLDYGDMLDPWGQGTLVTVSS
VL: DIQMTQSPSSLSASVGDRVTITCQASQDITNYLNWYQQKPGKAPKLLIYDASNLETGVPSRFSGSGSGTDFTFTISSLQPEDIATYYCQQADNHPPWTFGGGTKVEIK
B3: Ab21 (antibody, V domains shown)
VH: B2 VH
VL: B2 VL
B4: Ab25 (antibody, V domains shown)
VH: B2 VH with S30G
VL: B2 VL
B5: Ab23 (antibody, V domains shown)
VH: B2 VH with D35N, D54S, S56D, S78T
VL: B2 VL
B6: Ab22 (antibody, IgG4, V domains shown)
VH: B2 VH with S30G, D35N, S52H, P53S
VL: B2 VL
B7: Ab24 (antibody, IgG4, V domains shown)
VH: B2 VH with G16R, S33A, D35Y
VL: B2 VL
B8: Ab30 (antibody, IgG4, V domains shown)
VH: B2 VH with V100T
VL: B2 VL
B9: Ab16 (antibody, V domains shown)
VH: B1 VH with R30S, S50A, G56F, A57T
VL: DIQLTQSPSSLSASVGDRVTITCRASQSISSYLNWYQQKPGKAPKLLIYAASNLQSGVPSRFSGSGSGTDFTLTISSLQPEDFATYYCQQTYTVPLTFGGGTKVEIK
B10: Ab7 (antibody, V domains shown)
VH: B1 VH with R30A, N31D, S35T, S50A, S54T, G56A, A57H
VL: not shown
B11: Ab9 (antibody, V domains shown)
VH: B1 VH with E1Q, L5V, L11V, R30S, N31S, Y32F, S35T, S50A, G56A, Y60F
VL: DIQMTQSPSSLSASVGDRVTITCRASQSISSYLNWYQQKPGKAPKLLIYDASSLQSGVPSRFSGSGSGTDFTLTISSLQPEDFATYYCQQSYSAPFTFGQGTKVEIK
B12: Ab36 (antibody, V domains shown)
VH: B1 VH with F106L
VL: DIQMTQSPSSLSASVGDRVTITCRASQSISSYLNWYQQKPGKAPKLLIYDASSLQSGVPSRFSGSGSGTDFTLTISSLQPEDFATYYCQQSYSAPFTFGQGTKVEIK
B13: Ab8 (antibody, V domains shown)
VH: B1 VH with E1Q, L5V, L11V, G16R, R30S, N31D, S35V, S50A, G56F, A57T
VL: not shown
B14: Ab10 (antibody, V domains shown)
VH: B1 VH
VL: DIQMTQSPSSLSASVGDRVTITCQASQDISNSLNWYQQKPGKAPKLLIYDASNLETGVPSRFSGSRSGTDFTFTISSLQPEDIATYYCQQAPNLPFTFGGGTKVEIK
B15: Ab13 (antibody, V domains shown)
VH: B1 VH with R30A, N31D, S35T, S50A, G53S, S54F, G55A, G56S, T58I
VL: B9 VL with L4M, N53S, T91V, T93D, V94P
B16: Ab17 (antibody, V domains shown)
VH: B1 VH with L11V, R30S, N31S, Y32F, S35T, S50A, G56A, Y60F
VL: B9 VL
B17: Ab18 (antibody, V domains shown)
VH: QVQLVESGGGVVQPGRSLRLSCAASGFTFSDYAMVWVRQAPGKGLEWVSAISGSGAATYFADSVKGRFTISRDNSKNTLYLQMNSLRAEDTAVYYCATVSSGHWDFDYWGQGTLVTVSS
VL: B9 VL
B18: Ab15 (antibody, V domains shown)
VH: B17 VH with Q1E, A56F, A57T, F60Y, T98R
VL: B9 VL
B19: Ab14 (antibody, V domains shown)
VH: B1 VH with R30S, N31A, S35T, S50A, S54T, A57S
VL: B9 VL with L4M, N53S, T91V, T93D, V94P
B20: Ab27 (antibody, V domains shown)
VH: B2 VH with S31F, F32Y, S33A, D35N
VL: B2 VL
B21: Ab28 (antibody, V domains shown)
VH: B2 VH with A97V
VL: B2 VL

target: hGARP-proTGFβ1 complex on cells (human, UniProt Q14392 20-662; P01137 30-390); test: cell-based or functional assay
Sequence (Q14392 20-662 limits assumed, chain 1 of 2): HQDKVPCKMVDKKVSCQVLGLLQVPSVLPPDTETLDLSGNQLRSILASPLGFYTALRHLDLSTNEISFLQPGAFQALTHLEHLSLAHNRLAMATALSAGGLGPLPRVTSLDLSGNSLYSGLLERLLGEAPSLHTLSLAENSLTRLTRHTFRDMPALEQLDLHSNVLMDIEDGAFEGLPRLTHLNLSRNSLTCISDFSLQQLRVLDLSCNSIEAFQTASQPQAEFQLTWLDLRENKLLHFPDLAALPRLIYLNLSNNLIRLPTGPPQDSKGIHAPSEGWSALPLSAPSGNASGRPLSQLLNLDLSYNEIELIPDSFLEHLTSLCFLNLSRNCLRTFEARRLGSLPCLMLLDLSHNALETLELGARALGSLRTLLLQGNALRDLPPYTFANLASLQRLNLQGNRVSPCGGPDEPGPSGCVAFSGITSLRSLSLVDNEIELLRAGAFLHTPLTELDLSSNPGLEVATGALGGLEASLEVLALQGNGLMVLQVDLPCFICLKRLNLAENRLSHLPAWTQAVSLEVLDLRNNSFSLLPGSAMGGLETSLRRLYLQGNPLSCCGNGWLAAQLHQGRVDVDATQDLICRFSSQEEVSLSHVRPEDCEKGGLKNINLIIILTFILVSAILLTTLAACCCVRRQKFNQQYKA
Sequence (P01137 30-390 limits assumed, chain 2 of 2): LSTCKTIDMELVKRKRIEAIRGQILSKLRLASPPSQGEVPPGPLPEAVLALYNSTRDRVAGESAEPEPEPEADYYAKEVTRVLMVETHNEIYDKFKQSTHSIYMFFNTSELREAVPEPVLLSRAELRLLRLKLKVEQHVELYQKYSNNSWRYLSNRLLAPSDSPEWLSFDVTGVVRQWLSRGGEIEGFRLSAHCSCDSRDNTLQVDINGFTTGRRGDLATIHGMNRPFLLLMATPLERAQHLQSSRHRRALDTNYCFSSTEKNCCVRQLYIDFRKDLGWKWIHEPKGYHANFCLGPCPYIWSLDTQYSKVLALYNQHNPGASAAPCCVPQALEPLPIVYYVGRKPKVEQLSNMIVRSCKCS

IC50, reporter cell assay of TGFβ1 activation [nM]	Binder
3.71	B1
0.14	B2
0.401	B3
0.442	B4
0.264	B5

target: hLTBP3-proTGFβ1 complex made by transfected cells (cell-based potency assay) (human, UniProt Q9NS15 44-1303; P01137 30-390); test: cell-based or functional assay
Sequence (Q9NS15 44-1303, chain 1 of 2): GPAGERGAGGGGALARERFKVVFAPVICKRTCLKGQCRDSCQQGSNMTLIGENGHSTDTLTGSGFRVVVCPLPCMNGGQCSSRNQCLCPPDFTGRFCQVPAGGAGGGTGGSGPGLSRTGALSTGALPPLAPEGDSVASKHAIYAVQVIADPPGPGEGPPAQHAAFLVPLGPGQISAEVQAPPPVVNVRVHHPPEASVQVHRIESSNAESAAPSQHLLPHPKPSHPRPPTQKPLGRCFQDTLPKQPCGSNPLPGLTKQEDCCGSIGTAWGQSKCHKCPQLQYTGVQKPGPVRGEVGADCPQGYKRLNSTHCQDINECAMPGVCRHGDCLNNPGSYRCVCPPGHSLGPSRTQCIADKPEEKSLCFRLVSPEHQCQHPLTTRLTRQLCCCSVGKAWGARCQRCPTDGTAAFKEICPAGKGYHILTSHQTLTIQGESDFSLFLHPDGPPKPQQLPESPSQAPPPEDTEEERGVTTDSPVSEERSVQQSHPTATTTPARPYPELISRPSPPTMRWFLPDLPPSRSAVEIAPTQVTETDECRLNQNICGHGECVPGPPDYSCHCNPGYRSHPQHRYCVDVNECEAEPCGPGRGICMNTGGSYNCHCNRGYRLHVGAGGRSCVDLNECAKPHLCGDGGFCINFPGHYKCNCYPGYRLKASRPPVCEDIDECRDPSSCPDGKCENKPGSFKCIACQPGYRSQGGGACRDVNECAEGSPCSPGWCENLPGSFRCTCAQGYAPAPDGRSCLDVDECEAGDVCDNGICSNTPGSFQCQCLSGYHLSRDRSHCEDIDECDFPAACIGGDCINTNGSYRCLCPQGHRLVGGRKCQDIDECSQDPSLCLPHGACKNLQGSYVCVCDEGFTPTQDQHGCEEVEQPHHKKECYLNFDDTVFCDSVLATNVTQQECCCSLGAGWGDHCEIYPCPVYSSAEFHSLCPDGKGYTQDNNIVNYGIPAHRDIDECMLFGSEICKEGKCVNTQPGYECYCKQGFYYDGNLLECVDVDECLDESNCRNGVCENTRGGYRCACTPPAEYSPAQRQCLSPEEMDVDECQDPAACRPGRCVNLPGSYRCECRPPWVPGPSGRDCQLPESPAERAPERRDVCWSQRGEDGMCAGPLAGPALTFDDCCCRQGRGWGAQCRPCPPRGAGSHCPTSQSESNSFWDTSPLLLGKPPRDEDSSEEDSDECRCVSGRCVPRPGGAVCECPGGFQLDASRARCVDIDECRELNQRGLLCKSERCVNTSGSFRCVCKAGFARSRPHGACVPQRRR
Sequence (P01137 30-390, chain 2 of 2): as the sequence (P01137 30-390 limits assumed, chain 2 of 2) above

IC50, reporter cell assay of TGFβ1 activation [nM]	Binder
2.71	B1
1	B2
0.765	B3
0.538	B4
0.879	B5

target: hLTBP1-proTGFβ1 complex made by transfected cells (cell-based potency assay) (human, UniProt Q14766 347-1721; P01137 30-390); test: cell-based or functional assay

IC50, reporter cell assay of TGFβ1 activation [nM]	Binder
14.5	B1
1.29	B2
1.61	B3
6.08	B4
0.835	B5

target: hLRRC33-proTGFβ1 complex on cells (human, UniProt Q86YC3 19-692; P01137 30-390); test: cell-based or functional assay

IC50, reporter cell assay of TGFβ1 activation [nM]	Binder
5.37	B1
0.616	B2
0.596	B3
0.653	B4
0.579	B5

target: T1, human GARP-proTGFβ1 complex (human, UniProt Q14392 20-627; P01137 30-390); test: MSD-SET, solution equilibrium titration
T1 construct: also called hGARP-proTGFβ1; hGARP
Method: (§1) MSD-SET assays were performed to measure affinities of the antibodies at equilibrium. Briefly, each test antibody was diluted 3-5 fold and samples were mixed with biotinylated antigen in a 48-well dish. The SET samples were equilibrated for 20-24 hours at room temperature. Meanwhile, a capture plate was coated with IgG (20 nM) and incubated overnight at 4° C. or 30 minutes at room temperature, followed by a blocking step with 5% BSA. After the capture plate was washed three times, SET samples were added and incubated for 150 seconds. The plate was washed once to remove unbound complexes. 250 ng/ml SA-Sulfotag was added then washed 3 times. 2× Read Buffer was added, and signals from the labeled bound complexes were read with the use of QuickPlex™ SQ 120 instrument.

T1 sequence (Q14392 20-627, chain 1 of 2): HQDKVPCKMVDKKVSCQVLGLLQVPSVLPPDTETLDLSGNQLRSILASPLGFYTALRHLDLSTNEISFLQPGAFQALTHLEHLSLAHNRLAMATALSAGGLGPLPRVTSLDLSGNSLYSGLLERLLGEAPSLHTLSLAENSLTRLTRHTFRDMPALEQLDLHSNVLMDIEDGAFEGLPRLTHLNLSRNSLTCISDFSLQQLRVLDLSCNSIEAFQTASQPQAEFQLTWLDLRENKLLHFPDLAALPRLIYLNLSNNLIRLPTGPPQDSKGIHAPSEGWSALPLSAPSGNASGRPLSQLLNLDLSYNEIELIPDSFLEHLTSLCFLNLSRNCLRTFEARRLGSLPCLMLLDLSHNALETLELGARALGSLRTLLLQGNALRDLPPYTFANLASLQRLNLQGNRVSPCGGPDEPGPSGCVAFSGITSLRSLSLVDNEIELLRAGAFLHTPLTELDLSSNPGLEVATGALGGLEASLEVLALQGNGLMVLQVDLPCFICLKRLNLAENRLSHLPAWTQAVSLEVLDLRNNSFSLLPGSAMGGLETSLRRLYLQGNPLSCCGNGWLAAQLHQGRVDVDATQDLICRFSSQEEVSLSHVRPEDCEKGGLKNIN
T1 sequence (P01137 30-390, chain 2 of 2): as the sequence (P01137 30-390 limits assumed, chain 2 of 2) above

Kd [nM]	Binder
0.027	B6
0.019	B7
0.022	B8

target: T2, human LTBP3-proTGFβ1 complex (human, UniProt Q9NS15 866-1039); test: MSD-SET, solution equilibrium titration
T2 construct: range 866-1039; also called hLTBP3-proTGFβ1; hLTBP3
Method: as §1

Kd [nM]	Binder
0.033	B6
0.021	B7
0.026	B8

target: T3, human LTBP1-proTGFβ1 complex (human, UniProt Q14766 873-1507); test: MSD-SET, solution equilibrium titration
T3 construct: range 873-1507; biotinylated in Octet and MSD-SET; also called hLTBP1-proTGFβ1; hLTBP1
Method: as §1

T3 sequence (Q14766 873-1507 limits assumed, chain 1 of 2): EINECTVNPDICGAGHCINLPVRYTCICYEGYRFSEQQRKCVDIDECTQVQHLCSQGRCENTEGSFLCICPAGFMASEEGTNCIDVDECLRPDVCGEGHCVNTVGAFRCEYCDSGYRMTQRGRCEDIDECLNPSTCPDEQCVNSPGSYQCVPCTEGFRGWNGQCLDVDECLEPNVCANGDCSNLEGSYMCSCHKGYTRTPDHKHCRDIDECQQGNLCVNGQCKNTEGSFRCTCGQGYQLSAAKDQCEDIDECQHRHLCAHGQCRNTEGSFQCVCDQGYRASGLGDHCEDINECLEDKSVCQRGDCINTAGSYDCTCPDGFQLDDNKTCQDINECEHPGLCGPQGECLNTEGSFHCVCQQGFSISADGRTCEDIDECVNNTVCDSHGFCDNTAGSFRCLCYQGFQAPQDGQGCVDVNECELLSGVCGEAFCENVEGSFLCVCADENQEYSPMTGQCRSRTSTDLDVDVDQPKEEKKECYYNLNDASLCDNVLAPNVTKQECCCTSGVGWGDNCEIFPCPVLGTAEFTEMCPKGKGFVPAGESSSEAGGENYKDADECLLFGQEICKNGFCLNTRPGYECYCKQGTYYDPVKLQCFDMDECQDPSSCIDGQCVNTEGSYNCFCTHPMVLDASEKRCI
T3 sequence (chain, as listed by the source limits assumed, chain 2 of 2): as the sequence (P01137 30-390 limits assumed, chain 2 of 2) above

Kd [nM]	Binder
0.05	B6
0.024	B7
0.031	B8

target: T4, human LRRC33-proTGFβ1 complex (human, UniProt Q86YC3 19-650; P01137 30-390); test: MSD-SET, solution equilibrium titration
T4 construct: also called hLRRC33-proTGFβ1; hLRRC33
Method: as §1

Kd [nM]	Binder
0.2	B6
0.18	B7
0.14	B8

target: T1, human GARP-proTGFβ1 complex; test: BLI (Octet)

Kd [nM]	Binder
4.16	B9
18	B10
15.5	B11
12.8	B12
15.4	B13
10.2	B14
10	B15
8.62	B16
11.5	B17
7.01	B18
10.5	B19
0.833	B3
0.488	B4
0.424	B20
0.974	B6
0.665	B7
1.34	B5
0.833	B8
0.797	B21

target: T2, human LTBP3-proTGFβ1 complex; test: BLI (Octet)

Kd [nM]	Binder
0.132	B9
0.417	B10
0.284	B11
0.415	B12
0.302	B13
0.319	B14
0.249	B15
0.208	B16
0.257	B17
0.168	B18
0.346	B19
0.268	B3
0.152	B4
0.238	B20
0.329	B6
0.198	B7
0.468	B5
0.261	B8
0.316	B21

target: T3, human LTBP1-proTGFβ1 complex; test: BLI (Octet)

Kd [nM]	Binder
0.181	B9
0.487	B10
0.348	B11
0.353	B12
0.329	B13
0.262	B14
0.276	B15
0.174	B16
0.312	B17
0.15	B18
0.336	B19
0.225	B3
0.217	B4
0.178	B20
0.318	B6
0.246	B7
0.417	B5
0.332	B8
0.34	B21

target: T4, human LRRC33-proTGFβ1 complex; test: BLI (Octet)

Kd [nM]	Binder
0.631	B9
10.3	B10
1.3	B11
1.42	B12
10	B13
1.06	B14
1.4	B15
0.658	B16
1.02	B17
0.702	B18
1.34	B19
0.455	B3
0.409	B4
0.299	B20
0.415	B6
0.41	B7
0.455	B5
0.535	B8
0.409	B21
